Assay [1] deals with cyno IL13 (cynomolgus monkey) (UniProt Q0PW92). The assay is described as follows: cell-based or functional assay.
For assay [2], the target named is human IL13 (human) (UniProt P35225). The assay is described as follows: cell-based or functional assay.
The target is the same in assay [3]. The assay is described as follows: SPR BIAcore, biotin-IL13 on SA chip, global fit.
For the next assay, the target named is human IL13 R130Q (human) (UniProt P35225). Kind of assay: Luminex competition, 80 pM biotin-IL13 R130Q binding to IL13Ra2-Fc beads.
Chain of human IL13 R130Q (human) (P35225 35-146 limits assumed, stated change not applied): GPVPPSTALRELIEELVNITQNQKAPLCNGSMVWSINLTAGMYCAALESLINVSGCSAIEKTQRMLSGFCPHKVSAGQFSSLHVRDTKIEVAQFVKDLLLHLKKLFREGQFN

Data on 3 molecules can be found in patent US20120277143A1.

Chain of human IL13 (human) (P35225 other isoform, or with tags, fused parts or gaps limits assumed): as the sequence (P35225 35-146 limits assumed, stated change not applied) above, with Q110R counted along it
Chain of cyno IL13 (cynomolgus monkey) (Q0PW92 entry or part of it): as the sequence (P35225 35-146 limits assumed, stated change not applied) above, with G1S, R10K, M42V, S67N, H83R, L100V counted along it

B1: 7H3 (designed binder, part only; not given: N-cap, C-cap, His tag, part only)
chain, part: TDMYGSTPLHLAARHGHLEIVEVLLKYGADVNAFDFIGDTPLHLAAYRGHLEIVEVLLKYGVDVNADDHYGDTPLHLAASMGHLEIVEVLLKNGADVNA
B1: the Cyno IL13 STAT6 IC50 in assay [1] turned out to be 0.388 nM. Moreover, in the assay with human IL13 (human) [2], the STAT6 Phospho IC50 came out at 0.0253 nM and the TARC expression IC50 turned out to be 0.0696 nM. Further, in the assay with human IL13 (human) [3], the dissociation constant (Kd) was 0.131 nM, the koff was 0.00056 s⁻¹ and the kon worked out at 4.26e+06 M⁻¹ s⁻¹. This molecule also displayed a half-inhibitory concentration (IC50) in the assay with human IL13 R130Q (human) of 0.0669 nM.

B2: 5D2 (designed binder, part only; not given: N-cap, C-cap, His tag, part only)
chain, part: KDLFGSTPLHLAARHGHLEIVEVLLKNGADVNAEDFIGDTPLHLAAYRGHLEIVEVLLKYGVDVNADDHYGDTPLHLAASMGHLEIVEVLLKNGADVNA
B2 returned a Cyno IL13 STAT6 IC50 in assay [1] of 0.224 nM. In the assay with human IL13 (human) [2], this molecule yielded an STAT6 Phospho IC50 of 0.0203 nM and a TARC expression IC50 of 0.0714 nM. In the assay with human IL13 (human) [3], this molecule had a dissociation constant (Kd) of 0.145 nM, an off-rate (koff) of 0.000218 s⁻¹ and an on-rate constant (kon) of 1.51e+06 M⁻¹ s⁻¹. In the assay with human IL13 R130Q (human), this molecule returned an IC50 of 0.0322 nM.

B3: 5D3 (designed binder, part only; not given: N-cap, C-cap, His tag, part only)
chain, part: WDSYGSTPLHLAAREGHLEIVEVLLKYGADVNAKDMIGDTPLHLAAYRGHLEIVEVLLKYGVDVNADDHYGDTPLHLAASMGHLEIVEVLLKNGADVNA
In assay [1], B3 yielded a Cyno IL13 STAT6 IC50 of 3.02 nM. In the assay with human IL13 (human) [2], this molecule gave an STAT6 Phospho IC50 of 0.0169 nM and a TARC expression IC50 of 0.0883 nM. Further, in the assay with human IL13 (human) [3], the Kd turned out to be 0.164 nM, the koff was found to be 0.000144 s⁻¹ and the on-rate (kon) stood at 877000 M⁻¹ s⁻¹. For the same molecule, the IC50 in the assay with human IL13 R130Q (human) was 0.0375 nM.

One may read the Kd as the concentration at which binding is half-saturated. One may read the koff as the rate constant with which the complex falls apart. Read a high koff as fast dissociation. For orientation: kon means the rate constant with which the complex forms. Low values mean slower complex formation, high ones faster complex formation. By IC50 is commonly meant the concentration that gives 50% inhibition. A higher IC50 goes with weaker potency in that assay.
